Laboratory results: patent US20190062438A1 (CSL, published 2019)
Residue numbers refer to the chain shown, from its start.

Tests used:
Assay in all cases: SPR, kinetics, Fab over captured mutant
[1] = biological target: T1, shCD131 D107A (human, UniProt P32927 17-438)
T1 construct: C-terminal 6xHis
T1 sequence: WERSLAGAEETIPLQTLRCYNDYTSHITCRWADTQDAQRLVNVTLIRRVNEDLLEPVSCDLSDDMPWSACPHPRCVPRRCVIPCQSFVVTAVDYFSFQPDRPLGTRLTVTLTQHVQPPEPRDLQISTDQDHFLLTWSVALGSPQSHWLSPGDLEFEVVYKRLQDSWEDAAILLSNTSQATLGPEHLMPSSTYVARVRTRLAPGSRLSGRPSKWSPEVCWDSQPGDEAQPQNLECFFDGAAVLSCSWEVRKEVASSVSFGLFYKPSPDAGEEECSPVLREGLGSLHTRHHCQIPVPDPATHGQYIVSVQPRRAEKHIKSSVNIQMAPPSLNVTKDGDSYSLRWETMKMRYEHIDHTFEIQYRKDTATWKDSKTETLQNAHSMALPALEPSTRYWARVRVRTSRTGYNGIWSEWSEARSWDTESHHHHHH

[2] = biological target: T2, shCD131 Y421A (human, UniProt P32927 17-438)
T2 construct: C-terminal 6xHis
T2 sequence: T1 sequence with A91D, Y405A

[3] = biological target: T3, shCD131 Q339A (human, UniProt P32927 17-438)
T3 construct: C-terminal 6xHis
T3 sequence: T1 sequence with A91D, Q323A

[4] = biological target: T4, shCD131 T419A (human, UniProt P32927 17-438)
T4 construct: C-terminal 6xHis
T4 sequence: T1 sequence with A91D, T403A

Kd [1]: 191 nM
Kd [2]: 167 nM
Kd [3]: 144 nM
Kd [4]: 53 nM
B1: 9A2 Fab (Fab, V domains shown)
VH: EVQLLESGGGLVQPGGSLRLSCAASGFTFSHYHMLWVRQAPGKGLEWVSSIRSSGGFTYYADSVKGRFTISRDNSKNTLYLQMNSLRAEDTAVYYCARFYDSFFDIWGQGTMVTVSS
VL: DIQMTQSPSSVSASVGDRVTITCRASQGISSWLAWYQQKPGKAPKLLIYAASSLQSGVPSRFSGSGSGTDFTLTISSLQPEDFATYYCQQANSFPITFGQGTRLEIKR
notes: also called recombinant Fab of 9A2
